Reference: US20190225675A1 (TUFTS UNIVERSITY, published 2019)
Read-outs that look alike come from different tables or passages of the source.

Columns and labels:
[1] = biological target: anthrax protective antigen (PA) (Bacillus anthracis, UniProt P13423 30-764); assay: legend of FIG. 29A: VHHs identified that bind each target as indicated
[2] = biological target: T1, Clostridium difficile toxin B (TcdB) (Clostridium difficile, UniProt P18177 2-2366); assay: ELISA, toxin-coated plates, HRP-conjugated detection antibody
T1 construct: mature
T1 sequence (P18177 2-2366): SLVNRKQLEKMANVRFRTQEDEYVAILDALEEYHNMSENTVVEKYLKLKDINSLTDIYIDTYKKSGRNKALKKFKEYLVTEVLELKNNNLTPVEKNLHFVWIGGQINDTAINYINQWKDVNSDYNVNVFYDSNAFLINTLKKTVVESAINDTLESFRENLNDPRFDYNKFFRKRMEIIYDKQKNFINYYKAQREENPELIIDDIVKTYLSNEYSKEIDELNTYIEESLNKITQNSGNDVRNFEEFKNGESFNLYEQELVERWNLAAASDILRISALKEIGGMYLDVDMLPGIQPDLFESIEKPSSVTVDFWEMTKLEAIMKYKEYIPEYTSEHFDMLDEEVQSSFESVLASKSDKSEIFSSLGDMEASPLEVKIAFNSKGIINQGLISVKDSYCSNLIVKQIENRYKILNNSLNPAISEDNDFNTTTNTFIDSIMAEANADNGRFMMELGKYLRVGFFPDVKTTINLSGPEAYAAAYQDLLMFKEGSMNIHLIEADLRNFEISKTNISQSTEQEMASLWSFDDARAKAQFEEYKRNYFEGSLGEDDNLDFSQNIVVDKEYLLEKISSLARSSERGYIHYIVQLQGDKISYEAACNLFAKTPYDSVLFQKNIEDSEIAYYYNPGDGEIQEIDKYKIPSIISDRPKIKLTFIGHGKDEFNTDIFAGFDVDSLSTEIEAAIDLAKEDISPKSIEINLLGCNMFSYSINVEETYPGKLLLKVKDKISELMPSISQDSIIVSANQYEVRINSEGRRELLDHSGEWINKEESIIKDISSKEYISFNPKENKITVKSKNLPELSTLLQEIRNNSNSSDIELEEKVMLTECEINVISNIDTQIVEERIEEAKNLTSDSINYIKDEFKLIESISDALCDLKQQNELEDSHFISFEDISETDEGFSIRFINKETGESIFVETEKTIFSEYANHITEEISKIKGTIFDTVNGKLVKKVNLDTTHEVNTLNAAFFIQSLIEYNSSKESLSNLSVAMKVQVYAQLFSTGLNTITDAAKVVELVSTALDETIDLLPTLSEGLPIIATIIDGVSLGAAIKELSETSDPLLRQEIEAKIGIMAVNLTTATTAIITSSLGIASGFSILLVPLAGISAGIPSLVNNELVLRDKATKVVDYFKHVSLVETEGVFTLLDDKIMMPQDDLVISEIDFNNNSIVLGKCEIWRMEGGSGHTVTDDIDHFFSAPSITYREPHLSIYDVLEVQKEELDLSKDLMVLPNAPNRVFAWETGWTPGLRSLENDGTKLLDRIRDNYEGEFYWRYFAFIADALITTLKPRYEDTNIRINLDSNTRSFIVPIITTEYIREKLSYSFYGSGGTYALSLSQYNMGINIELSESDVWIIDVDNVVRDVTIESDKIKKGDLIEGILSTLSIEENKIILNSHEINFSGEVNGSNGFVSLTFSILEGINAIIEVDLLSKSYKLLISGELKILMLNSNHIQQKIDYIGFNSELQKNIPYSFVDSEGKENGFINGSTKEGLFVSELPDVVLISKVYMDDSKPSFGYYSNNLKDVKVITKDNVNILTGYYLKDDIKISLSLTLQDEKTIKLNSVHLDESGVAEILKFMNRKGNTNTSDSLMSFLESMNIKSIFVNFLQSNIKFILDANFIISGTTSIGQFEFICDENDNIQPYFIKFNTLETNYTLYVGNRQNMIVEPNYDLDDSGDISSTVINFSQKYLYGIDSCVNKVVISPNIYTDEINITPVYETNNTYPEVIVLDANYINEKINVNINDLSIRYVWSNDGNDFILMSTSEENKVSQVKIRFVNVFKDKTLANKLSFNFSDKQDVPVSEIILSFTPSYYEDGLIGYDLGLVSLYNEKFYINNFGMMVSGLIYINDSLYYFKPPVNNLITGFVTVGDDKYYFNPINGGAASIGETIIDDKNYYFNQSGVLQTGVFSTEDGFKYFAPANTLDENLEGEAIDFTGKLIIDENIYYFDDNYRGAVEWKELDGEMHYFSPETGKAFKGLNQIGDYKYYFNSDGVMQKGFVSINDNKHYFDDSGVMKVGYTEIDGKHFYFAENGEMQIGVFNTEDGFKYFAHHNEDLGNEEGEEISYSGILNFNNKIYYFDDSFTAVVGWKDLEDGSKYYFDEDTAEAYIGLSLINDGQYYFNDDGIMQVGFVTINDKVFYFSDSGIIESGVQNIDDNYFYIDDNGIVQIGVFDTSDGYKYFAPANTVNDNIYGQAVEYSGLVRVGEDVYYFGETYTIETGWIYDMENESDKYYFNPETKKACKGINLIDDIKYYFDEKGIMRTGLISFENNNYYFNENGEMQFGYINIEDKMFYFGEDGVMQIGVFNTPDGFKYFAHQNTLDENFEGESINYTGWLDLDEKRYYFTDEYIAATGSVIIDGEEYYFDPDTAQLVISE

[3] = biological target: T2, Clostridium difficile toxin A (TcdA) (Clostridium difficile, UniProt P16154 1-2710); assay: ELISA on plates coated with TcdA, HRP-conjugated detection antibody, A450
T2 construct: mature

[4] = biological target: T3, Botulinum neurotoxin serotype A1 (BoNT/A) holotoxin (Clostridium botulinum, UniProt P0DPI0 2-1296); assay: VHH selection; binding competition
T3 construct: mature

[5] = biological target: T4, Shiga-like toxin 2 (Stx2) (UniProt P09385 23-319; P09386 20-89)
T4 sequence 1: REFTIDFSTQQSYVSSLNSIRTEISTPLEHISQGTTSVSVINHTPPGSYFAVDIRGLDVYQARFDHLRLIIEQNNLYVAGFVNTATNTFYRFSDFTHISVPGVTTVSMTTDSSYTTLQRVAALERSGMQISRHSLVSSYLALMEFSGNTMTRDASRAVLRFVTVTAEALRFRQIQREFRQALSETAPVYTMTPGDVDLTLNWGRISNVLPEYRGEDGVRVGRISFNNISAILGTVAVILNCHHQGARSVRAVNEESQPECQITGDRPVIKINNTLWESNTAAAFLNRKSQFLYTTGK
T4 sequence 2: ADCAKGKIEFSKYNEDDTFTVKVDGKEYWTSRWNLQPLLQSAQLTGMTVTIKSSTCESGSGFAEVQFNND

[6] = biological target: T4, Shiga-like toxin 2 (Stx2); remark: listed apart in the source
[7] = biological target: T4, Shiga-like toxin 2 (Stx2); remark: listed apart in the source
[8] = biological target: T4, Shiga-like toxin 2 (Stx2); remark: listed apart in the source
[9] = biological target: T3, Botulinum neurotoxin serotype A1 …; assay: method not stated

anthrax protective antigen (PA), sequence (P13423 30-764 limits assumed): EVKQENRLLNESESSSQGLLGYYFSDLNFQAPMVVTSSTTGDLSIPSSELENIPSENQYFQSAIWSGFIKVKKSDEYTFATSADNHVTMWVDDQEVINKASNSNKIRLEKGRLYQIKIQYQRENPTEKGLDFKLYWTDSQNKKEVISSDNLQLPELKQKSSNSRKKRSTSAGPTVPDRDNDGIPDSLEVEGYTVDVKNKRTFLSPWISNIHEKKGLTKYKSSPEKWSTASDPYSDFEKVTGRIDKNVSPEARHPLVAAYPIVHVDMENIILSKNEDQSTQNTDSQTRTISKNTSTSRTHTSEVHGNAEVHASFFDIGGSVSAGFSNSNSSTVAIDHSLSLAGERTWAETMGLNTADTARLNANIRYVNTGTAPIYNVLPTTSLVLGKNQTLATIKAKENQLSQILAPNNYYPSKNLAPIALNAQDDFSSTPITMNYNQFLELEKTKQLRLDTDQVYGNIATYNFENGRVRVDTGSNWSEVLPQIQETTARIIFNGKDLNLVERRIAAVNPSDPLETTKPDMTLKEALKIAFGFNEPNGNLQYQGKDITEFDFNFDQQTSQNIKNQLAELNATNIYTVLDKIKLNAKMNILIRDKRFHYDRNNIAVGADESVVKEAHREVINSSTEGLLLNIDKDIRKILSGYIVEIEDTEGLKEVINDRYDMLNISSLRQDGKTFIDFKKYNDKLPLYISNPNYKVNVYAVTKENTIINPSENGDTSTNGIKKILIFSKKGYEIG

B1: JIJ-B8 (VHH)
VHH: QVQLVESGGGLVQPGGSLSVSCAASGSIARPGAMAWYRQAPGKERELVASITPGGLTNYADSVTGRFTISRDNAKRTVYLQMNSLQPEDTAVYYCHARIIPLGLGSEYRDHWGQGTQVTVSS
binding result [1]: binds

B2: JHE-D9 (VHH)
VHH: QVQLVESGGGLVQPGGSLRLSCAASGFIFSLYTMRWHRQAPGKERELVATITSATGITNYADSVKGRFIISRDDAKKTGYLQMNSLKPEDTAVYYCNAVRTTVSRDYWGQGTQVTVSS
binding result [1]: binds

B3: VNA-TcdA (toxin A binding heterodimer, AH3+AA6) (bispecific antibody)
chain: QGVQSQLQLVESGGGLVQPGGSLRLSCAASGFTLDYSSIGWFRQAPGKEREGVSCISSSGDSTKYADSVKGRFTTSRDNAKNTVYLQMNSLKPDDTAVYYCAAFRATMCGVFPLSPYGKDDWGKGTLVTVSSEPKTPKPQGGGGSGGGGSGGGGSQGVQSQVQLVESGGGLVQPGGSLRLSCAASGFTFSDYVMTWVRQAPGKGPEWIATINTDGSTMRDDSTKGRFTISRDNAKNTLYLQMTSLKPEDTALYYCARGRVISASAIRGAVRGPGTQVTVSSEPKTPKPQ
binding result [2]: no binding (tested: up to 125 nM) | EC50 (read off the curve) [3]: ~2 nM

B4: JDQ-B2 (VHH)
VHH: QVQLVESGGGLVQPGGSLRLSCTVSGSIFDLPGMNWYRQAPGAQRELVADISSDGRRTNYADSVKGRFTMSRDNAKKTVYLQMDSLKPDDTAVYYCNVKFTHHWGQGIQVTVSS
binding result [4]: binds

B5: JDQ-C5 (VHH)
VHH: QVQLVESGGGLVQPGGSLRLSCTVSGSIFGLPGMSWYRQAPGAQRELVADISSDGGRTHYADSVKGRFTISRDNDKKTVYLQMDSLKPDDTAVYYCNVKFTHHWGQGIQVTVSS
binding result [4]: binds

B6: JIK-F4 (VHH)
VHH: TGGGLVQAGGSLRLSCAASGRYAMGWFRQAPGKEREFVATISRSGAIREYADSVKGRFTISRDGAENTVYLEMNSLKPDDTAIYVCAEGRGATFNPEYAYWGQGTQVTVSS
binding result [1]: binds

B7: Stx-A4 (VHH)
VHH: SGGGLVQPGGSLRLSCAASGFTLGSYHIGWFRHPPGKEREGTSCLSSRGDYTKYAEAVKGRFTISRDNTKSTVYLQMNNLKPEDTGIYVCAAIRPVLSDSHCTLAARYNYWGQGTQVTVSS
EC50 (read off the curve) [5]: ~8 nM

B8: JIJ-A12 (VHH)
VHH: QVQLVESGGGLVQPGGSLRLSCAASGIIFSIYTMGWYRQAPGKQRELVAAIPSGPSANATDSVGGRFTITRDNAENTVYLQMNDLKPEDTAVYYCNARRGPGIKNYWGQGTQVTVSS
binding result [1]: binds

B9: JIK-B10 (VHH)
VHH: QVQLVETGGGLVQPGGSLRLSCAASGFTFSSYRMSWYRQAAGKERDVVATITANGVPTGYADSVMGRFTISRDNAKNTVYLEMNSLNPEDTAVYYCNAPRLHTSVGYWGQGTQVTVSS
binding result [1]: binds

B10: JIJ-C11 (VHH)
VHH: QVQLVETGGGLVQPGGSLGLSCVVASGRSINNYGMGWYRQAPGKQRELVAQISSGGTTNYAGSVEGRFTISRDNVKKMVYLQMNSLKPEDTAVYYCNSLLRTFSWGQGTQVTVSS
binding result [1]: binds

B11: JIK-B8 (VHH)
VHH: QVQLVESGGGLVQPGGSLGLSCVVASERSINNYGMGWYRQAPGKQRELVAQISSGGTTNYADSVEGRFTISRDNVKKMVHLQVNSLKPEDTAVYYCNSLLRTFSWGQGTQVTVSS
binding result [1]: binds

B12: JHD-B6 (VHH)
VHH: QVQLVESGGGLVQPGGSLRLSCAASGSSFSRYAMRWYRQAPGKQRELVANINSRGTSNYADSVKGRFTISRDNAKNTVYLQMNSLKPEDTAVYYCNAEWLGRSEPSWGQGTQVTVSS
binding result [1]: binds

B13: Stx2-D10 (VHH)
VHH: TGGLVQAGGSLRLSCAASGVPFSDYTMAWFRQAPGKEREVVARITWRGGGPYYGNSGNGRFAISRDIAKSMVYLHMDSLKPEDTAVYYCAASRLRPALASMASDYDYWGQGTQVSVSS
EC50 (read off the curve) [6]: ~0.3 nM | EC50 (read off the curve) [7]: ~0.3 nM

B14: JIJ-F11 (VHH)
VHH: QVQLVESGGGLVQPGGSLRLSCAAPESIVNSRTMAWYRQAPGKQRERVATITTAGSPNYADSVKGRFAISRDNAKNTVYLQMNSLKPEDTAVYYCNTLLSTLPYGQGTQVTVSS
binding result [1]: binds

B15: JIK-B12 (VHH)
VHH: QVQLVESGGGLVQAGNSLRLSCTASGVIFSIYTMGWFRQAPGKEREFVAAIGVADGTALVADSVTGRFTISRDNAKNTVYLHMNSLKPEDTAVYSCAAYLSPRVQSPYITDSRYQLWGQGTQVTVSS
binding result [1]: binds

B16: JIJ-E9 (VHH)
VHH: QVQLVETGGLVQPGGSLRLSCAASRSTTATIYSMNWYRQAPGKQRELVAGMTSDGQTNYATSVKGRFTISRDNAKNTVYLLMNSLKLEDTAVYYCYVKPWRLQGWDYWGQGTQVTVSS
binding result [1]: binds

B17: JDO-E9 (VHH)
VHH: QVQLVESGGGLVRPGGSLRLSCVVSGFAYEMPMMGWYRQAPGNQRELVATIGTGGRMNYADSVKGRFTISRDNAKNTVYLQMNSLKPEDTAAYYCKIEFTNYWGQGTQVTVSS
binding result [4]: binds

B18: JIJ-D3 (VHH)
VHH: QVQLVETGGLVQPGGSLRLSCAASGLTFSSTAMAWFRQAPGKEREFVARISGAGITIYYSDSVKDRFTISRNNVENTVYLQMNSLKTEDTAVYYCAARRNTYTSDYNIPARYPYWGQGTQVTVSS
binding result [1]: binds

B19: Stx-A5 (VHH)
VHH: SGGGLVQPGGSLRLSCAALEFTLEDYAIAWFRQAPGKEREGVSCISKSGVTKYTDSVKGRFTVARDNAKSTVILQMNNLRPEDTAVYNCAAVRPVFVDSVCTLATRYTYWGEGTQVTVSS
EC50 (read off the curve) [5]: ~0.8 nM | EC50 (read off the curve) [7]: ~0.8 nM | EC50 (read off the curve) [8]: ~0.8 nM

B20: Stx2-G1 (VHH)
VHH: SGGGLVQPGESLRLSCVASASTFSTSLMGWVRQAPGKGLESVAEVRTTGGTFYAKSVAGRFTISRDNAKNTLYLQMNSLKAEDTGVYYCTAGAGPIATRYRGQGTQVTVSS
EC50 (read off the curve) [6]: ~0.1 nM | EC50 (read off the curve) [8]: ~0.1 nM

B21: scFv#7 (scFv)
scFv: SYELTQPPSMSVALGQTAKVTCQGDNLENFYVQWHQQKPGQAPVTVIFQDNKRPSGIPDRFSGSNSGNTATLTISGARTEDEADYYCQSGHSSIGGVFGSGTSLTVLGQPAAAGGGGSGGGGSGGGGSARQVQLQESGPSLVKPSQTLSLTCTVSGFSLTGNSVTWVRQAPGNVPEWLGGISRGGRTYYDTALKSRLSITRDTSKRQVSLSLSSVTTEDTAMYFCARSAYSTLYDYEYAADIYDWGPGLLVTVSSTSGAPVPYPDPLEPRAA
Kd [9]: ~1 nM

B22: JDQ-F9 (VHH)
VHH: QVQLVESGGGLVQDGGSLRLSCTTSGSIDSFNAIEWYRQAPGKQRELVASISSDGRRTNYADSVKGRFTISGDNAKNTVYLQMNSLKPEDTAVYYCHRPFTHYWGQGTQVTVSS
binding result [4]: binds
